The results in this text go back to US20190292256A1, “Compounds and Methods to Measure Metabolic Function and Restore Normal Metabolic Function” (priority 2010, published 2019).

Holding throughout (assay type): cell-based, mouse
One experiment relates to 3T3-L1 adipocytes. In words: Sfrp5 and adiponectin transcript expression in 3T3-L1 adipocytes treated with stress agents (QRT-PCR). As to conditions: differentiated 3T3-L1 adipocytes, 24 h; TNFα 10 ng/ml, H2O2 0.2 mM, tunicamycin 5 μg/ml. The procedure:
(§1) Mouse 3T3-L1 cells (ATCC) were maintained in DMEM with 10% fetal bovine serum (FBS) and differentiated into adipocytes by treatment with DMEM supplemented with 5 μg/ml of insulin, 0.5 mM 1-methyl-3-isobutyl-xanthin, and 1 μM dexamethazone. At day 7 after differentiation, 3T3-L1 adipocytes were treated with tunicamycin, H2O2, TNFα or vehicle for 24 h. Peritoneal macrophages from lean WT C57BL/6 mice were maintained in DMEM supplemented 10% FBS and placed in DMEM with 0.5% FBS for 16 h for serum starvation. Macrophages were incubated in the conditioned media from 3T3-L1 adipocytes transduced with adenoviral vectors in the presence of Wnt5a protein (200 ng/ml) or vehicle for 24 h. In some experiments, cells were pretreated with SP600125 (15 μM) or vehicle for 1 h followed by treatment with Wnt5a protein.
Epididymal fat pads from male wild-type C57BL/6 mice fed a normal diet were excised, minced in PBS and digested with 1 mg/ml collagenase Type 1 (Worthington Chemical Corporation) at 37° C. for 30 min. The digested fat tissue was filtered through a mesh and centrifuged at 1000 rpm for 5 min to separate floating adipocytes from the SV fraction. Measurement of mRNA Levels Gene expression level was quantified by real-time PCR. Total RNA was prepared with the use of a Qiagen kit. cDNA was produced using ThermoScript RT-PCR Systems (Invitrogen). PCR was performed on iCycler iQ Real-Time PCR Detection System (Bio-Rad) using SYBR Green 1 as a […] DNA specific dye (Applied Biosystems).

The test system of experiment [1] is phosphorylation of JNK in adipocytes. In words: Wnt5a-stimulated JNK phosphorylation in 3T3-L1 adipocytes (immunoblot). As to conditions: Wnt5a 30 min. The protocol:
as §1

Experiment [2] relates to IL-6 expression in adipocytes. Kind of experiment: Wnt5a-stimulated IL-6 expression in 3T3-L1 adipocytes (QRT-PCR). As to conditions: Wnt5a 200 ng/ml 24 h. The procedure:
as §1
(§2) Epididymal fat pads from male wild-type C57BL/6 mice fed a normal diet were excised, minced in PBS and digested with 1 mg/ml collagenase Type 1 (Worthington Chemical Corporation) at 37° C. for 30 min. The digested fat tissue was filtered through a mesh and centrifuged at 1000 rpm for 5 min to separate floating adipocytes from the SV fraction. Measurement of mRNA Levels Gene expression level was quantified by real-time PCR. Total RNA was prepared with the use of a Qiagen kit. cDNA was produced using ThermoScript RT-PCR Systems (Invitrogen). […]

In experiment [3] the test system is TOPflash reporter activity (canonical Wnt signaling). Kind of experiment: TOPflash luciferase reporter assay in 3T3-L1 adipocytes. As to conditions: Wnt5a 200 ng/ml 24 h, AdTRE-Sfrp5 transduction. The protocol: 3T3-L1 adipocytes were transduced with adenoviral vectors for 24 h and co-transfected with a TOPflash (Upstate) construct and a Renilla luciferase control plasmid (pRL-SV40, Promega) to normalize for transfection efficiency. After transfection, cells were treated with Wnt5a protein (200 ng/ml) or vehicle. Cells were lysed and analyzed on a luminometer by using dual luciferase assay kit (Promega).

In experiment [4] the test system is JNK phosphorylation in macrophages. Kind of experiment: Wnt5a-stimulated JNK phosphorylation in peritoneal macrophages (immunoblot). As to conditions: in conditioned media from Ad-β-gal-treated 3T3-L1 adipocytes, 30 min. The procedure: as §1, with “Macrophages were incubated in the conditioned media from 3T3-L1 adipocytes transduced with adenoviral vectors in the presence of Wnt5a protein (200 ng/ml) or vehicle for 24 h.” left out
For orientation: In western blotting, separated proteins are transferred to a membrane and probed.

The test system of experiment [5] is TNFα and IL-6 transcript expression by macrophages. In words: Wnt5a-stimulated TNFα and IL-6 transcript expression in peritoneal macrophages (QRT-PCR). As to conditions: Wnt5a 200 ng/ml, 24 h. The procedure: as §1, §2

Take TNFα: in the experiment on 3T3-L1 adipocytes, the Sfrp5 transcript levels entry was “significantly reduced” and the “transcript level of adiponectin” value is “down-regulated”.
For the molecule `OO` [hydrogen peroxide], in the experiment on 3T3-L1 adipocytes, the Sfrp5 transcript levels result is “significantly reduced” and the “transcript level of adiponectin” value is given as “down-regulated”.
The matching figures for tunicamycin: “significantly reduced” and “down-regulated”.

B1: Wnt5a: recombinant mouse Wnt5a protein produced in CHO cells, purchased from R&D Systems (protein)
chain: IIGAQPLCSQLAGLSQGQKKLCHLYQDHMQYIGEGAKTGIKECQYQFRHRRWNCSTVDNTSVFGRVMQIGSRETAFTYAVSAAGVVNAMSRACREGELSTCGCSRAARPKDLPRDWLWGGCGDNIDYGYRFAKEFVDARERERIHAKGSYESARILMNLHNNEAGRRTVYNLADVACKCHGVSGSCSLKTCWLQLADFRKVGDALKEKYDSAAAMRLNSRGKLVQVNSRFNSPTTQDLVYIDPSPDYCVRNESTGSLGTQGRLCNKTSEGMDGCELMCCGRGYDQFKTVQTERCHCKFHWCCYVKCKKCTEIVDQFVCK
On to B1, for which the “phosphorylation of JNK in adipocytes” value in experiment [1] is on record as “stimulatory effects”. Also, the “IL-6 expression in adipocytes” value in experiment [2] was “stimulatory effects”. For the same molecule, the “effect on TOPflash reporter activity” value in experiment [3] is reported as “neither Sfrp5 nor Wnt5a had an effect”. Besides, the “JNK phosphorylation in macrophages” value in experiment [4] was “stimulated”. For the same molecule, in experiment [5], the “IL-6 transcript expression by macrophages” value is “increased” and the “TNFα transcript expression by macrophages” value is listed as “increased”.

B2: Sfrp5: secreted frizzled-related protein 5, here overexpressed in adipocytes by AdTRE-Sfrp5 transduction (protein, UniProt Q9WU66 22-314, looked up)
Secreted frizzled-related …: APTRGQEYDYYGWQAEPLHGRSYSKPPQCLDIPADLPLCHTVGYKRMRLPNLLEHESLAEVKQQASSWLPLLAKRCHSDTQVFLCSLFAPVCLDRPIYPCRSLCEAARAGCAPLMEAYGFPWPEMLHCHKFPLDNDLCIAVQFGHLPATAPPVTKICAQCEMEHSADGLMEQMCSSDFVVKMRIKEIKIDNGDRKLIGAQKKKKLLKAGPLKRKDTKKLVLHMKNGASCPCPQLDNLTGSFLVMGRKVEGQLLLTAVYRWDKKNKEMKFAVKFMFSYPCSLYYPFFYGAAEPH
For the molecule B2, the “effect on TOPflash reporter activity” value in experiment [3] was “neither Sfrp5 nor Wnt5a had an effect”.
